In article PMC13168245:

molecular target: AMC008 SOSIP.v4.2 Env (HIV-1 (clade B, isolate AMC008)); assay: mass photometry; AMC008 alone or with one excess Fab, 1:9 molar ratio in PBS, on ice 30 minutes, diluted in PBS; mass increase divided by 55 kDa per Fab

Row | Substance | stoichiometry N
1 | AMC008 SOSIP.v4.2 Env (complex) | 3
2 | antibody 3BC315 Fab | 2.07 Fab/55 kDa
3 | antibody b12 Fab | 3.09 Fab/55 kDa
